Source: patent US20180022822A1, “NOVEL ANTI-FIBROBLAST ACTIVATION PROTEIN (FAP) BINDING AGENTS AND USES THEREOF” (Mabimmune Diagnostics AG, priority 2016, published 2018)

Key:
[1] = molecular target: T1, rhFAP and FAP homologues (DPP4, DPP8, DPP9, POP/PREP) (Homo sapiens, UniProt Q12884); assay: inhibition assays on SB9 oligopeptidase family enzymes; format: biochemical; details: 0-1000 nM antibody
T1 construct: purchased Sino Biologicals 10464-H07H
T1 sequence (Q12884 26-760 limits assumed): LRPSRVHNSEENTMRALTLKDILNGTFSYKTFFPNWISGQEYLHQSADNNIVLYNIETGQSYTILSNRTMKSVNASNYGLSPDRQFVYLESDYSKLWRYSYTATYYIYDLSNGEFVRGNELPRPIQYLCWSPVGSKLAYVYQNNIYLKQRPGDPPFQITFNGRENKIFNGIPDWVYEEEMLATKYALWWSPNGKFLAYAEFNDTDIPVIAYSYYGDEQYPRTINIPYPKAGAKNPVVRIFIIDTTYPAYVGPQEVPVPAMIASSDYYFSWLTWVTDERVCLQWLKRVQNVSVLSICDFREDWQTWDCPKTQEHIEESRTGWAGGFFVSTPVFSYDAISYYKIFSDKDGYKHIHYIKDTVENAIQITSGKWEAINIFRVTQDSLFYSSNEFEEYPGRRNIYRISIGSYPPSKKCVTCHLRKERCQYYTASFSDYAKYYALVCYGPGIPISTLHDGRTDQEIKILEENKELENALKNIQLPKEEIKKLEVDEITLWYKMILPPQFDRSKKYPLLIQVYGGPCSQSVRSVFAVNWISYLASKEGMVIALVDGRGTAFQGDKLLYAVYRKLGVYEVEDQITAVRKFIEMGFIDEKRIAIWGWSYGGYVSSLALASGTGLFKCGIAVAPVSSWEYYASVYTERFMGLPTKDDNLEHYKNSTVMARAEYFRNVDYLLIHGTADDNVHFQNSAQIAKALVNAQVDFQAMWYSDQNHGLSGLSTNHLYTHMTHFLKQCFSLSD
Protocol: To determine the inhibitory ability of the antibody a black 96 well plate was blocked for 1 h with blocking buffer. NI-206.82C2 was pipetted at concentrations of 1000, 50, 10, 3.03, 1.01, 0.031, 0.001, and 0 nM in PBS into the according wells. The enzymes were added at a concentration of 0.2 nM. Finally, fluorgenic substrates were then added to the well at a concentration equal to the Michaelis constant (Km) and the velocity of the substrate cleavage was quantified by fluorescence at 360 nm excitation and 460 nm emission. H-Gly-Pro-AMC (AAT Bioquest, 13450) was used for DPP4, DPP9, and DPP8. Z-Gly-Pro-AMC (BaChem, 11145) was used to evaluate the activity of POP/PREP. FAP activity was assessed using DQ-gelatin (Life Technologies, D12054) and cleavage quantified at 495 nm excitation and 515 nm emission.

[2] = molecular target: T2, active recombinant mouse FAP (Mus musculus, UniProt P97321); assay: DQ-gelatin cleavage inhibition, active recombinant mouse FAP; format: biochemical
T2 construct: expressed in a HEK293 cell line without the transmembrane and intracellular domains and an N-terminal 6× histidine tag; made in house; host or cells: HEK293
T2 sequence (P97321 26-761 limits assumed): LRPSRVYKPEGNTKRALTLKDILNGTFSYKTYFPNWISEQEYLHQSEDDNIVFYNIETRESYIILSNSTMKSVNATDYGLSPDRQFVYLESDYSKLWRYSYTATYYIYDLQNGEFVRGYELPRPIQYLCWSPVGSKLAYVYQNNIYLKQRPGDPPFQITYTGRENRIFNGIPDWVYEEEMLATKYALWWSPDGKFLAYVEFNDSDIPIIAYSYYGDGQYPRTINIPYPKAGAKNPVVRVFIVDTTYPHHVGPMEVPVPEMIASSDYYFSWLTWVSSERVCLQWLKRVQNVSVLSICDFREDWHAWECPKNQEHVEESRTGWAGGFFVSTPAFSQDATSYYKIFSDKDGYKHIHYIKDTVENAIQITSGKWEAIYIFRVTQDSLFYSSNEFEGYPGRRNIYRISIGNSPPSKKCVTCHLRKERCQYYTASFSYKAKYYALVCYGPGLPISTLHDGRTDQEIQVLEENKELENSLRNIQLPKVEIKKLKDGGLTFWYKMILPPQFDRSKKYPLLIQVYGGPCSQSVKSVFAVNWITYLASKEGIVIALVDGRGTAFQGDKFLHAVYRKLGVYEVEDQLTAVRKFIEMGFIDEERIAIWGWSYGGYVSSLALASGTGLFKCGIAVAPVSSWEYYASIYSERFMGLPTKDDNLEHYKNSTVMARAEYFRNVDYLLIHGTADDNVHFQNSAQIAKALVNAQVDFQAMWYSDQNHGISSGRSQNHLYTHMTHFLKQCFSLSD
Protocol: To determine the inhibitory ability of NI-206.82C2 against active recombinant murine FAP, recombinant murine FAP was expressed in a HEK293 cell line without the transmembrane and intracellular domains and an N-terminal 6× histidine tag. A 96-well ELISA plate was then coated with 50 uL of murine anti-His tag antibody at 6 μg/mL in PBS overnight at 4° C. The wells were then blocked with 60 μL of 2% BSA in PBS for 1 h at room temperature, and 50 μL of recombinant mouse FAP containing cell culture supernatant diluted 1:4 was added to the well and incubated overnight at 4C while gently shaking. Following three washing steps with PBS, 20 uL of sterile 12.5% BSA/PBS solution was added to all wells.

B1: NI-206.82C2: human-derived recombinant anti-FAP antibody; VH SEQ ID NO: 2 or 4 (PIMC), VL SEQ ID NO: 6 (antibody, V domains shown)
VH: QVQLQQSGPGLVKPSQTLSLTCAISGDSVSSNSVTWNWIRQSPSRGLEWLGRTYYRSKWYNDYAVSVKGRITINPDTSKNQFYLQLKSVTPEDAAVYYCARDSSILYGDYWGQGTLVTVSS
VL: QAVLTQPSSLSASPGASASLTCTLPSGINVGTYRIFWFQQKPGSPPQYLLSYKSDSDNHQGSGVPSRFSGSKDASANAGILLISGLQSEDEADYYCMIWHSSAWVFGGGTKLTVL
In the case of B1, the “inhibition selectivity for rhFAP over FAP homologues” value [1] is reported as “selectively inhibits rhFAP, but not FAP homologues” and the “potency for inhibiting active recombinant mouse FAP compared to Val-boro-Pro and F19” value [2] is reported as “higher potency”.
